Laboratory results: US10202469B2, “Sugar chain-attached linker, compound containing sugar chain-attached linker and physiologically active substance or salt thereof, and method for producing same” (Glytech, Inc., priority 2012, dated 2019)
Where two headings read alike, the source gives them in different places.

Legend:
[1] = Tracing of hydrolysis behavior in aqueous solution by HPLC (hydrolysis half-life)
Procedure: […] A given amount of each solution was injected to HPLC at appropriate time intervals to trace the hydrolysis reaction. The relative starting material concentration was determined from an HPLC peak area corresponding to the starting material. The relative concentration of the starting material was plotted against incubation time. […] Also, the terminal half-life t1/2 of the starting material was calculated according to the expression t1/2=ln(2)/k (wherein k represents the slope of the linear plot).

[2] = Solubility (μM)
Procedure: (§1) After the centrifugation, the absorbance of the supernatant portion at 280 nm was measured in the microtube. From the obtained value, the concentration was calculated to determine solubility.

[3] = Solubility (μM); remark: listed apart in the source
Procedure: as §1

[4] = Solubility measurement in water (absorbance of supernatant at 280 nm); settings: 25° C.
Procedure: as §1

[5] = Solubility measurement in 0.1% aqueous acetic acid (AcOH) solution; settings: aqueous acetic acid solution (0.1% AcOH)
Procedure: as §1

[6] = system: cytotoxic T lymphocyte (CTL); settings: cited from earlier work
[7] = buffer, pH 4, Hydrolysis half-life, Acetate buffer solution (pH 4.0), 25° C.
[8] = buffer, pH 4, Hydrolysis half-life, Acetate buffer solution (pH 4.0), 37° C.
[9] = buffer, pH 7.4, Hydrolysis half-life, PBS (pH 7.4), 25° C.
[10] = buffer, pH 7.4, Hydrolysis half-life, PBS (pH 7.4), 37° C.

`CC(=O)N[C@@H]1[C@@H](O)[C@H](O[C@@H]2O[C@H](CO)[C@@H](O[C@@H]3O[C@H](CO[C@H]4O[C@H](CO)[C@@H](O)[C@H](O)[C@@H]4O[C@@H]4O[C@H](CO)[C@@H](O[C@@H]5O[C@H](CO)[C@H](O)[C@H](O)[C@H]5O)[C@H](O)[C@H]4NC(C)=O)[C@@H](O)[C@H](O[C@H]4O[C@H](CO)[C@@H](O)[C@H](O)[C@@H]4O[C@@H]4O[C@H](CO)[C@@H](O[C@@H]5O[C@H](CO)[C@H](O)[C@H](O)[C@H]5O)[C@H](O)[C@H]4NC(C)=O)[C@@H]3O)[C@H](O)[C@H]2NC(C)=O)[C@@H](CO)O[C@H]1NC(=O)CSCC(NC(=O)c1ccc(COC(=O)[C@H](CC(C)C)NC(=O)[C@H](CC(C)C)NC(=O)[C@H](C)NC(=O)[C@H](CC(C)C)NC(=O)[C@H](CC(C)C)NC(=O)[C@H](CC(C)C)NC(=O)CNC(=O)[C@H](Cc2c[nH]c3ccccc23)NC(=O)[C@@H](N)CCCNC(=N)N)cc1)C(N)=O` (stereo partly drawn) [compound 1] gave a Hydrolysis half-life ([1]; buffer, pH 4) greater than 720 h, a half-life ([1]; buffer, pH 4, Hydrolysis half-life) greater than 720 h and a Hydrolysis half-life ([1]; buffer, pH 7.4) of 146 h. It also gave a half-life ([1]; buffer, pH 7.4, Hydrolysis half-life) of 78 h, a solubility at 15 min [2] greater than 37000 µM and a solubility at 15 min [3] greater than 41000 µM.

`CC(=O)N[C@@H]1[C@@H](O)[C@H](O[C@@H]2O[C@H](CO)[C@@H](O[C@@H]3O[C@H](CO[C@H]4O[C@H](CO)[C@@H](O)[C@H](O)[C@@H]4O[C@@H]4O[C@H](CO)[C@@H](O[C@@H]5O[C@H](CO[C@]6(C(=O)O)C[C@H](O)[C@@H](NC(C)=O)[C@H]([C@H](O)[C@H](O)CO)O6)[C@H](O)[C@H](O)[C@H]5O)[C@H](O)[C@H]4NC(C)=O)[C@@H](O)[C@H](O[C@H]4O[C@H](CO)[C@@H](O)[C@H](O)[C@@H]4O[C@@H]4O[C@H](CO)[C@@H](O[C@@H]5O[C@H](CO[C@]6(C(=O)O)C[C@H](O)[C@@H](NC(C)=O)[C@H]([C@H](O)[C@H](O)CO)O6)[C@H](O)[C@H](O)[C@H]5O)[C@H](O)[C@H]4NC(C)=O)[C@@H]3O)[C@H](O)[C@H]2NC(C)=O)[C@@H](CO)O[C@H]1NC(=O)CSC[C@H](NC(=O)c1ccc(COC(=O)[C@H](CC(C)C)NC(=O)[C@H](CC(C)C)NC(=O)[C@H](C)NC(=O)[C@H](CC(C)C)NC(=O)[C@H](CC(C)C)NC(=O)[C@H](CC(C)C)NC(=O)CNC(=O)[C@H](Cc2c[nH]c3ccccc23)NC(=O)[C@@H](N)CCCNC(=N)N)cc1)C(N)=O` [compound 8] gave a solubility at 15 min ([4]; Solubility (mg/mL)) of no less than 121 mg/mL, a solubility at 15 min ([4]; Solubility (μM)) greater than 47000 µM and a half-life [1, 7] greater than 720 h. For the same compound, the half-life [1, 8] was greater than 720 h, the half-life [1, 9] was 121 h and the half-life [1, 10] was 106 h. It also gave a solubility at 15 min ([5]; Solubility (mg/mL)) of no less than 104 mg/mL and a solubility at 15 min ([5]; Solubility (μM)) greater than 34000 µM.

In the case of `CC(C)C[C@H](NC(=O)[C@H](CC(C)C)NC(=O)[C@H](C)NC(=O)[C@H](CC(C)C)NC(=O)[C@H](CC(C)C)NC(=O)[C@H](CC(C)C)NC(=O)CNC(=O)[C@H](Cc1c[nH]c2ccccc12)NC(=O)[C@@H](N)CCCNC(=N)N)C(=O)O` [compound 10], the “Ability to induce cytotoxic T lymphocyte (CTL)” value [6] is given as “exhibits the ability to induce cytotoxic T lymphocyte (CTL)”.

`CC(=O)N[C@@H]1[C@@H](O)[C@H](O[C@@H]2O[C@H](CO)[C@@H](O[C@@H]3O[C@H](CO[C@H]4O[C@H](CO)[C@@H](O)[C@H](O)[C@@H]4O[C@@H]4O[C@H](CO)[C@@H](O[C@@H]5O[C@H](CO)[C@H](O)[C@H](O)[C@H]5O)[C@H](O)[C@H]4NC(C)=O)[C@@H](O)[C@H](O[C@H]4O[C@H](CO)[C@@H](O)[C@H](O)[C@@H]4O[C@@H]4O[C@H](CO)[C@@H](O[C@@H]5O[C@H](CO)[C@H](O)[C@H](O)[C@H]5O)[C@H](O)[C@H]4NC(C)=O)[C@@H]3O)[C@H](O)[C@H]2NC(C)=O)[C@@H](CO)O[C@H]1NC(=O)CSCCSC(=O)[C@H](CC(C)C)NC(=O)[C@H](CC(C)C)NC(=O)[C@H](C)NC(=O)[C@H](CC(C)C)NC(=O)[C@H](CC(C)C)NC(=O)[C@H](CC(C)C)NC(=O)CNC(=O)[C@H](Cc1c[nH]c2ccccc12)NC(=O)[C@@H](N)CCCNC(=N)N` [compound 20] showed a solubility at 15 min ([4]; Solubility (mg/mL)) of no less than 77.4 mg/mL, a solubility at 15 min ([4]; Solubility (μM)) greater than 28000 µM and a half-life [1, 7] greater than 720 h. The half-life [1, 8] was 576 h, the half-life ([1]; buffer, pH 7.4, Hydrolysis half-life, PBS (pH 7.4), 4° C.) was 230 h and the half-life [1, 9] was 120 h. It also gave a half-life [1, 10] of 32 h.

For `CC(=O)N[C@@H]1[C@@H](O)[C@H](O[C@@H]2O[C@H](CO)[C@@H](O[C@@H]3O[C@H](CO[C@H]4O[C@H](CO)[C@@H](O)[C@H](O)[C@@H]4O[C@@H]4O[C@H](CO)[C@@H](O[C@@H]5O[C@H](CO)[C@H](O)[C@H](O)[C@H]5O)[C@H](O)[C@H]4NC(C)=O)[C@@H](O)[C@H](O[C@H]4O[C@H](CO)[C@@H](O)[C@H](O)[C@@H]4O[C@@H]4O[C@H](CO)[C@@H](O[C@@H]5O[C@H](CO)[C@H](O)[C@H](O)[C@H]5O)[C@H](O)[C@H]4NC(C)=O)[C@@H]3O)[C@H](O)[C@H]2NC(C)=O)[C@@H](CO)O[C@H]1NC(=O)C[C@H](NC(=O)Cc1ccc(SC(=O)[C@H](CC(C)C)NC(=O)[C@H](CC(C)C)NC(=O)[C@H](C)NC(=O)[C@H](CC(C)C)NC(=O)[C@H](CC(C)C)NC(=O)[C@H](CC(C)C)NC(=O)CNC(=O)[C@H](Cc2c[nH]c3ccccc23)NC(=O)[C@@H](N)CCCNC(=N)N)cc1)C(=O)NCC(N)=O` [compound 21], the solubility at 15 min ([4]; water, Solubility (mg/mL)) was no less than 76.7 mg/mL, the solubility at 15 min ([4]; water, Solubility (μM)) was greater than 26000 µM and the half-life ([1]; PBS, pH 7.4, Hydrolysis half-life, PBS (pH 7.4), 4° C.) was 66 h. The half-life ([1]; PBS, pH 7.4, Hydrolysis half-life, PBS (pH 7.4), 25° C.) was 25 h, the half-life ([1]; PBS, pH 7.4, Hydrolysis half-life, PBS (pH 7.4), 37° C.) was 4 h and the half-life ([1]; acetate buffer solution, pH 4, Hydrolysis half-life, Acetate buffer solution (pH 4.0), 25° C.) was 456 h. The half-life ([1]; acetate buffer solution, pH 4, Hydrolysis half-life, Acetate buffer solution (pH 4.0), 37° C.) was 240 h and the “Hydrolysis product found by HPLC analysis” value ([1]; after hydrolysis test in buffer solution) was “production of the unmodified HER2(8-16) peptide (compound 10) was confirmed”.
